Literature values in paper PMC10217895.
Read-outs that look alike come from different tables or passages of the source. One block for each substance: values may come before it.

Tests used:
[1] = molecular target: von Willebrand factor (Homo sapiens) (UniProt P04275)
[2] = molecular target: von Willebrand factor (Homo sapiens) (UniProt P04275); remark: listed apart in the source
[3] = molecular target: LRP1 (Homo sapiens) (UniProt Q07954)
[4] = molecular target: LDLR (Homo sapiens) (UniProt P01130)
[5] = molecular target: ASGPR (Homo sapiens) (UniProt P07306)
[6] = molecular target: SIGLEC5 (Homo sapiens) (UniProt O15389)
[7] = molecular target: SCARA5 (Homo sapiens) (UniProt Q6ZMJ2)

Sequence of Factor VIII (P00451 760-1332): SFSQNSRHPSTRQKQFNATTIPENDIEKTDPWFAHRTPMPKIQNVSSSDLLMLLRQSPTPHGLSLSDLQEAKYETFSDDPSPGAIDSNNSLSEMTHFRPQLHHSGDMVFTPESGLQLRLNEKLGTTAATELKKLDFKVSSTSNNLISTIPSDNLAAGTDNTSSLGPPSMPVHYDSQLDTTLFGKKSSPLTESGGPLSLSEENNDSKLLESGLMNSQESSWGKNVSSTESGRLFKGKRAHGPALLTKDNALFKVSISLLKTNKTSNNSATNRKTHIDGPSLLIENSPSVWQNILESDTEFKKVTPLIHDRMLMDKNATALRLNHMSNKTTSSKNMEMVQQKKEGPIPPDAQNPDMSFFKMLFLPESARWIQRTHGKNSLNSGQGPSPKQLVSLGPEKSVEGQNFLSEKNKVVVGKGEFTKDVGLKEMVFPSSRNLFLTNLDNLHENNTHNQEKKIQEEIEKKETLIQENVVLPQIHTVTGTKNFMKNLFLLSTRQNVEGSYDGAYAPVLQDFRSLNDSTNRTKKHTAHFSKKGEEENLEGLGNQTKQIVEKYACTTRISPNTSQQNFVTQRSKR
Sequence of LRP1 (Homo sapiens) (Q07954 20-4544): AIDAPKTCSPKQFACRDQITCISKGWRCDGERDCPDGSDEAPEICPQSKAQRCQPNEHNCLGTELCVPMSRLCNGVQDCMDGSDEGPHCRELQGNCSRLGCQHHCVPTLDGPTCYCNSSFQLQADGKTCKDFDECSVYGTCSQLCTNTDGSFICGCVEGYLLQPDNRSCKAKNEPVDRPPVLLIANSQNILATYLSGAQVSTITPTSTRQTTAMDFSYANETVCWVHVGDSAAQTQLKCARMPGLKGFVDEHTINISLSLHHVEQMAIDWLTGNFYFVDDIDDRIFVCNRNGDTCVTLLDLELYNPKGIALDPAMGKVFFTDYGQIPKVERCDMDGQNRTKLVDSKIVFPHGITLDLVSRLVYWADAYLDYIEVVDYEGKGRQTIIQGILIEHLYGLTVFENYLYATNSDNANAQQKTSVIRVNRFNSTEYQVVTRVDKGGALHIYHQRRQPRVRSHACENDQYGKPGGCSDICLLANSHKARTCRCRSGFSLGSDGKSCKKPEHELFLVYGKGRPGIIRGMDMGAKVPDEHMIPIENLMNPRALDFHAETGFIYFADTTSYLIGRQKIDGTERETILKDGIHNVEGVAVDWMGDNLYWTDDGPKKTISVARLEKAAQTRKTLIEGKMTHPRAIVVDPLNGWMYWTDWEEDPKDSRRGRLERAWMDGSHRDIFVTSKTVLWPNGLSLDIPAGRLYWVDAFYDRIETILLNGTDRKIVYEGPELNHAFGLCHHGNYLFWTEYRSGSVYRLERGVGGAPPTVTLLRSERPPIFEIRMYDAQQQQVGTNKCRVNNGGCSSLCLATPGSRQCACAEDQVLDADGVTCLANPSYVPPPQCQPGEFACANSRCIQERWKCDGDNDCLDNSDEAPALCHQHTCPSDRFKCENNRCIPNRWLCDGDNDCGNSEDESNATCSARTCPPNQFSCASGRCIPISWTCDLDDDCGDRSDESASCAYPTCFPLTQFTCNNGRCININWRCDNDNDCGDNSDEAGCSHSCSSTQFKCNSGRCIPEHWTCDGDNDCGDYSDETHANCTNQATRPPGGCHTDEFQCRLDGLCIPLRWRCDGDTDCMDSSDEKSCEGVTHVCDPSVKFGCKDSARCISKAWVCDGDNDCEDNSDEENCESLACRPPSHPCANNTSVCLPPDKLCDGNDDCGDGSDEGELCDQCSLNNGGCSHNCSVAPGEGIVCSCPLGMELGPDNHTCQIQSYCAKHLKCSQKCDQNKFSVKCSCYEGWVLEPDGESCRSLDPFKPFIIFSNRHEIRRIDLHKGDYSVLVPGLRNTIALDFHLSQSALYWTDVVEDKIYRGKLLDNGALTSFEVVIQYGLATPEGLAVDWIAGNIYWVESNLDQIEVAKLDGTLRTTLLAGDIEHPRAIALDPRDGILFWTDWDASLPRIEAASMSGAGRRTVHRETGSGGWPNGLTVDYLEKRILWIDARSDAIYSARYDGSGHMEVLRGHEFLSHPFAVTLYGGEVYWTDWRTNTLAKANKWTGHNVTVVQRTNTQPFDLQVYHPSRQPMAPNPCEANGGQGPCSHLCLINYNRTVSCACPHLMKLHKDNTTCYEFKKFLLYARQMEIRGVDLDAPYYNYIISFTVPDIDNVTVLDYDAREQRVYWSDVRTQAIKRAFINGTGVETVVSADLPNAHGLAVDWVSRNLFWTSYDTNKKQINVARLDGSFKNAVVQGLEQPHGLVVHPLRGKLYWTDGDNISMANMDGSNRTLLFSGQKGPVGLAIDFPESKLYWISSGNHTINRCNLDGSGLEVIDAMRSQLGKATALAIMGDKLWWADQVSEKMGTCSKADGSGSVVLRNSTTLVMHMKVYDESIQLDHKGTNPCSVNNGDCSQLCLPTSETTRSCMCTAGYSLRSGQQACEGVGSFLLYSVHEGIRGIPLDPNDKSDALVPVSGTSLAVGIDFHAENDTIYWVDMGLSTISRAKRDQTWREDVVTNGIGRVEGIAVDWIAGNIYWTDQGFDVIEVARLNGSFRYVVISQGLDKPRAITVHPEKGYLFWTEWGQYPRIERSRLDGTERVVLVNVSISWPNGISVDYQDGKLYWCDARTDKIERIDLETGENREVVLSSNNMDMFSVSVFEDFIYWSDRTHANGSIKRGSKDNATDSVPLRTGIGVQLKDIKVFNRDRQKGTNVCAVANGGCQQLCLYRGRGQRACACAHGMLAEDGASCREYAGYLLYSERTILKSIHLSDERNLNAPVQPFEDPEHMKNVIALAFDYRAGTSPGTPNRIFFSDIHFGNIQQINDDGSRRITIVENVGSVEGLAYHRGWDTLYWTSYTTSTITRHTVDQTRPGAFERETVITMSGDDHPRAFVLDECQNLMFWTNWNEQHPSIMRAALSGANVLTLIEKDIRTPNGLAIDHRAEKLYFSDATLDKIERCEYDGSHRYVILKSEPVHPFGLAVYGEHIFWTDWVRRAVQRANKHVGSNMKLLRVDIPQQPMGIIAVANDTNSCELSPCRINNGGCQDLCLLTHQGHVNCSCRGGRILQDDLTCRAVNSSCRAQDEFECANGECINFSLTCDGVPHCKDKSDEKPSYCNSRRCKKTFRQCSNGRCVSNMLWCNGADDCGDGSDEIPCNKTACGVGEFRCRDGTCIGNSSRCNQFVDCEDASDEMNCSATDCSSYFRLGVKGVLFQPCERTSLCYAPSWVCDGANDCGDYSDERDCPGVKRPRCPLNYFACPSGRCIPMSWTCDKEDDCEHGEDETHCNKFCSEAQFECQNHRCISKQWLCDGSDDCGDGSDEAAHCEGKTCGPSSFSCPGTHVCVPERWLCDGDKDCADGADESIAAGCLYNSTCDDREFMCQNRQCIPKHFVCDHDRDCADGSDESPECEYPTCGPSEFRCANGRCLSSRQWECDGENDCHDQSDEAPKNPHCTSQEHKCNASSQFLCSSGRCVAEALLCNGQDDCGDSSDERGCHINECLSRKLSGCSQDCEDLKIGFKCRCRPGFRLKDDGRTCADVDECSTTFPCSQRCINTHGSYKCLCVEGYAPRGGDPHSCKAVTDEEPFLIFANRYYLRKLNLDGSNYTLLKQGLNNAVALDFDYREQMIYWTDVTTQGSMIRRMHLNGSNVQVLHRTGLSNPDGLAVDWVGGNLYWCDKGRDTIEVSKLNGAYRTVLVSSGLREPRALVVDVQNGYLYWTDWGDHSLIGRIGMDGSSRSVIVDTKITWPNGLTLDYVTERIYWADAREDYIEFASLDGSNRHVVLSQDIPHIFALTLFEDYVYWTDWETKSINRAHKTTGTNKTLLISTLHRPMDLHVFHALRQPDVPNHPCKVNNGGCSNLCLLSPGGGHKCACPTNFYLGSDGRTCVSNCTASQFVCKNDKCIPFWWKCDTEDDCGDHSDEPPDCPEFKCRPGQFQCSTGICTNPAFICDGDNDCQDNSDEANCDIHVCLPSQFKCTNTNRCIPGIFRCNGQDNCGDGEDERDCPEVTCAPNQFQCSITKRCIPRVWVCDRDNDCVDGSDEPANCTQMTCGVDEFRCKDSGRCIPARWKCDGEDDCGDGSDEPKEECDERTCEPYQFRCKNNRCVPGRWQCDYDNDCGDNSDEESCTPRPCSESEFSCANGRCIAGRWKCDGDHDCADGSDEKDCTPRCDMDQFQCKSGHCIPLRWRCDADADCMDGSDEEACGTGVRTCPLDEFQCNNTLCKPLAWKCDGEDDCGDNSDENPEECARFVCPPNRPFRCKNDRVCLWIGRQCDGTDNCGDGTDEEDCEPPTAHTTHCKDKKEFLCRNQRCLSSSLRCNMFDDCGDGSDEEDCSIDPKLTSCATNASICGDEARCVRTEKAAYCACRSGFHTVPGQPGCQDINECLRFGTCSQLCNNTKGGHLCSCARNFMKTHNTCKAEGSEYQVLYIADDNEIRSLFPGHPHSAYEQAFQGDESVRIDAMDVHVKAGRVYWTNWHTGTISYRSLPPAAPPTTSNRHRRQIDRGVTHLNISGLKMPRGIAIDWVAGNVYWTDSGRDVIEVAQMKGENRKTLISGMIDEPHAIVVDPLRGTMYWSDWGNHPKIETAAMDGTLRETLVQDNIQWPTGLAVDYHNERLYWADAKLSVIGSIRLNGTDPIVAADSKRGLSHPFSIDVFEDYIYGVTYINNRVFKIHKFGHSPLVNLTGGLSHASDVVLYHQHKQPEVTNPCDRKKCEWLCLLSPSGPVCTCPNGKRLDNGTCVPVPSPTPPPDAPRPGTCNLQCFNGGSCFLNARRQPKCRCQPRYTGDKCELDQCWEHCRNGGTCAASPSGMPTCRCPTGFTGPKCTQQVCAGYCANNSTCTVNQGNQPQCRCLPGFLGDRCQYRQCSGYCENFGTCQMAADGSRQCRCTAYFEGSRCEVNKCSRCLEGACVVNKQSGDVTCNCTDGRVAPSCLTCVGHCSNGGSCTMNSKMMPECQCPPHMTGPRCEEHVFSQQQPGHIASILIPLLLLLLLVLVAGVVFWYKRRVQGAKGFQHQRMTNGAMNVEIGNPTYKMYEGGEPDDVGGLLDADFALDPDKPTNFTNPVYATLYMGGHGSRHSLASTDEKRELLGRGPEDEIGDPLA

Kd [1]: 0.013 nM
Substance: FVIII-KB013bv (from UniProt P00451)

Kd [2]: 0.5 nM | Kd [3]: 20 nM | Kd [4]: 45 nM | Kd [5]: 2 nM | Kd [6]: 8 nM
Substance: Factor VIII (from UniProt P00451)

Kd [7]: 0.5 nM
Substance: von Willebrand factor (from UniProt P04275)
